Source: paper PMC2635478 (Traffic (Copenhagen, Denmark), 2008)
Read-outs that look alike come from different tables or passages of the source.

Key:
[1] = target: the molecule itself; experiment: SEC
[2] = target: the molecule itself; experiment: SEC; remark: listed apart in the source

Row | Protein | stoichiometry N [1] | stoichiometry N [2]
1 | NEM-modified PITPβ (phosphatidylinositol transfer protein beta) in cytosol of NEM-treated HL60 cells (natural protein, human (endogenous in HL60), UniProt P48739 1-271, looked up, C95 alkylated by N-ethylmaleimide (NEM)) MVLIKEFRVVLPCSVQEYQVGQLYSVAEASKNETGGGEGIEVLKNEPYEKDGEKGQYTHKIYHLKSKVPAFVRMIAPEGSLVFHEKAWNAYPYCRTIVTNEYMKDDFFIKIETWHKPDLGTLENVHGLDPNTWKTVEIVHIDIADRSQVEPADYKADEDPALFQSVKTKRGPLGPNWKKELANSPDCPQMCAYKLVTIKFKWWGLQSKVENFIQKQEKRIFTNFHRQLFCWIDKWIDLTMEDIRRMEDETQKELETMRKRGSVRGTSAADV | 2 | –
2 | NEM-modified PITPβ (phosphatidylinositol transfer protein beta) in cytosol of NEM-treated PC12 cells (natural protein, rat (endogenous in PC12), UniProt P53812 1-271, looked up, C95 alkylated by N-ethylmaleimide (NEM)) MVLIKEFRVVLPCSVQEYQVGQLYSVAEASKNETGGGEGIEVLKNEPYENDGEKGQYTHKIYHLKSKVPAFVRMIAPEGSLVFHEKAWNAYPYCRTIVTNEYMKDDFFIKIETWHKPDLGTLENVHGLDPNTWKTVEIVHIDIADRSQVEPADYKADEDPALFQSVKTKRGPLGPNWKKELANTPDCPKMCAYKLVTIKFKWWGLQSKVENFIQKQEKRIFTNLHRQLFCWIDKWIDLTMEDIRRMEDETQKELETMRKKGSVRGTSAADA | – | 2
